Source: patent US20230212272A1 (LONGBIO PHARMA SUZHOU, published 2023)
Numbering of substitutions follows the chain as printed. Values belong to the binder of their own block, whether it stands above or below them.

What was measured:
[1] = molecular target: T1, C5 of normal human serum (NHS) (human, UniProt P01031 19-1676); test: cell-based or functional assay
[2] = molecular target: T1, C5 of normal human serum (NHS); test: cell-based or functional assay; remark: listed apart in the source
human C5 antigen [3] = molecular target: T2, human C5 antigen (human, UniProt P01031 19-673; P01031 678-1676); test: BLI (ForteBio Octet)
T2 construct: The later ELISAs detect it with an anti-histidine antibody, so it carries a His tag; also called complement component 5

human C5 antigen [4] = molecular target: T2, human C5 antigen; test: ELISA, antibody coated, human C5 titrated; EC50 is the antigen concentration
Description: The wells were blocked with 2.5% skimmed milk dissolved in a phosphate-buffered saline (PBS) for 1 hour, and washed with a PBST solution (a PBS solution containing 20% Tween). Then, 100 μL of the human C5 gradient diluent (the C5 was diluted to 1 ug/ml, followed by 3 X dilution to give 7 gradients, with 100 μL/well) was added into each well, and incubated at room temperature for 1 hr.
EC₅₀ can be used to evaluate the concentration of antigen at the 50% binding capacity of various antibodies to the antigen.

B1: Eculizumab (antibody, human IgG2, kappa, V domains shown)
VH: QVQLVQSGAEVKKPGASVKVSCKASGYIFSNYWIQWVRQAPGQGLEWMGEILPGSGSTEYTENFKDRVTMTRDTSTSTVYMELSSLRSEDTAVYYCARYFFGSSPNWYFDVWGQGTLVTVSS
VL: DIQMTQSPSSLSASVGDRVTITCGASENIYGALNWYQQKPGKAPKLLIYGATNLADGVPSRFSGSGSGTDFTLTISSLQPEDFATYYCQNVLNTPLTFGQGTKVEIKR
IC50 (ng/ml), classical pathway (CP) hemolysis inhibition [1]: 559 ng/mL | IC90 (ng/ml), classical pathway (CP) hemolysis inhibition [1]: 1340 ng/mL | IC50 (ng/ml), inhibition of classical pathway hemolysis of sheep red blood cells by 1% NHS [2]: 401 ng/mL

B2: chimeric antibody CHI-16 (antibody, human IgG1, kappa, L234A L235A, V domains shown)
VH: QIQLVQSGPELKKPGETVKISCKASGYTFTNYGMNWVKQAPGKGLKWMGWINTYTGEPTYADDFKGRFAFSLETSASTAYLQINNLKNEDTATYFCTRTKVPLYFAYAMDYWGQGTSVTVSS
VL: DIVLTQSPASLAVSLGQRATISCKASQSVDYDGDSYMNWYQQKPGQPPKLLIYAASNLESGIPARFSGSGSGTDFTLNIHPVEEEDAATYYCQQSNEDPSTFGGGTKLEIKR
IC50 (ng/ml), classical pathway (CP) hemolysis inhibition [1]: 302 ng/mL | IC90 (ng/ml), classical pathway (CP) hemolysis inhibition [1]: 500 ng/mL | IC50 (ng/ml), inhibition of classical pathway hemolysis of sheep red blood cells by 1% NHS [2]: 204 ng/mL

Kd (human C5 antigen [3]): 0.369 nM | koff (human C5 antigen [3]): 7.86e-05 s⁻¹ | kon (human C5 antigen [3]): 213000 M⁻¹ s⁻¹ | EC50 (human C5 antigen [4]): 0.169 µg/mL
B3: humanized antibody 16H46L39am (antibody, human IgG1, kappa, L234A L235A, V domains shown)
VH: QVQLVQSGAEVKKPGASVKVSCKASGYTFTNYGMNWVRQAPGQGLEWMGWINTYTGEPTYADDFKGRFTFTLDTSTSTAYLELSSLRSEDTAVYYCARTKVPLYFAYAMDYWGQGTLVTVSS
VL: DIQLTQSPSSLSASVGDRVTITCKASQSVDYEGDSYLNWYQQKPGKAPKLLIYAASNLESGIPSRFSGSGSGTDFTLTISSLQPEDFATYYCQQSNEDPSTFGGGTKVEIKR
IC50 (ng/ml), classical pathway (CP) hemolysis inhibition [1]: 330 ng/mL | IC90 (ng/ml), classical pathway (CP) hemolysis inhibition [1]: 507 ng/mL

Kd (human C5 antigen [3]): 0.359 nM | koff (human C5 antigen [3]): 7.81e-05 s⁻¹ | kon (human C5 antigen [3]): 217000 M⁻¹ s⁻¹ | EC50 (human C5 antigen [4]): 0.117 µg/mL
B4: humanized antibody 16H1L2m (antibody, human IgG1, kappa, L234A L235A, V domains shown)
VH: B3 VH with A9S, V11L, T69V, T71S, T76V, T78M, E82Q, L83I, R87K, S88A
VL: DIVLTQSPSSLAVSLGERATINCKASQSVDYEGDSYLNWYQQKPGQPPKLLIYAASNLESGIPDRFSGSGSGTDFTLTISSLQAEDVAVYYCQQSNEDPSTFGGGTKVEIKR
IC50 (ng/ml), classical pathway (CP) hemolysis inhibition [1]: 347 ng/mL | IC90 (ng/ml), classical pathway (CP) hemolysis inhibition [1]: 511 ng/mL
